Data from patent publication US20160305952A1 (ROCHE SEQUENCING SOLUTIONS, published 2016).

Columns and labels:
streptavidin [1] = biological target: T1, streptavidin (UniProt P22629 37-163, limits assumed); assay: SPR, Biacore X100, streptavidin on CM5 chip, peptide in solution
T1 construct: amine-coupled to a CM5 chip for SPR; also called SA
Text: (§1) A selection of streptavidin peptide binders listed in Table 15 were synthesized using standard column-based synthesis techniques by UW Biotechnology center (Madison, Wis.) or by Peptide2.0 (Chantilly, Va.) at 98-99% purity. Strep-tag II peptide NH2-[…]-COOH was purchased from IBA GmbH (Goettingen, Germany). Synthesized peptides were then characterized by Surface Plasmon Resonance (SPR) to identify binding characteristics including the association rate constant (kₛ), dissociation rate constant (kd), and equilibrium dissociation […] (kd/kₐ=KD). In one aspect, SPR experiments were performed by using Biacore X100 instrument (GE Healthcare). Preliminarily, 60 μl of 100 μg/ml streptavidin in 10 mM Na-acetate, pH5.0 was immobilized to flow cell 2 (Fc2) of a sensor chip CM5 (GE Healthcare) using Amine Coupling Kit (GE Healthcare) at 20° C. for 6 min. Peptide stock solutions were prepared at 5 or 10 mM concentration in water and diluted in HBS-EP+ (GE Healthcare) buffer before SPR experiments. Peptide binding was performed in a multiple kinetics mode using HBS-EP+ as a running buffer and 0.2 M NaCl, 10 mM NaOH or 10 mM HCl-glycine, […] as regeneration buffer. Binding kinetics parameters were calculated with Biacore X100 software.

streptavidin [2] = biological target: T1, streptavidin; assay: SPR
Text: as §1

streptavidin [3] = biological target: T1, streptavidin; assay: SPR, Biacore X100, streptavidin on CM5 chip, peptide in solution; second KD value printed for the same peptide
Text: as §1

T1 sequence (P22629 37-163 limits assumed): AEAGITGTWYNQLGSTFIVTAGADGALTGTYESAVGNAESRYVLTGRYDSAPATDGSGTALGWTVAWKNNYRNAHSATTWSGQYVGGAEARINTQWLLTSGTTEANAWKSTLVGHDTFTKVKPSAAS

Row | Binder | Kd (streptavidin [1]) [µM] | koff (streptavidin [1]) [s⁻¹] | kon (streptavidin [1]) [M⁻¹ s⁻¹] | fold change in KD as compared with the parent peptide … (streptavidin [2]) [fold] | Kd (streptavidin [3]) [µM]
1 | H-RDPAPAWAHGGG-NH2 (free peptide) [NH2-RDPAPAWAHGGG-amide] | 4.66 | 0.0696 | 14900 | ≥ 100 | 
2 | H-EWVHPQFEQKAK-NH2 (free peptide) [NH2-EWVHPQFEQKAK-amide] | 5.68 |  |  |  | 5.87
